Experiment [1] concerns the target T1, human FcγRIIaH extracellular domain, C-terminal His-tag (human, UniProt P12318 34-217).
T1 construct: also called human FcγRIIa (type H); FcgRIIaH; not shown: His-tag added to the C-terminus
T1 sequence: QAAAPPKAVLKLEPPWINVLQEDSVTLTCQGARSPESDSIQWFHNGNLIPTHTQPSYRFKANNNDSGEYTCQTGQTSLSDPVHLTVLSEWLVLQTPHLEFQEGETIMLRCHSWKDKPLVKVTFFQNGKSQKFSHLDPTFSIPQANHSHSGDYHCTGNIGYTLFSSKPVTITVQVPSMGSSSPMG
As to the kind of experiment: SPR; KD of SG1 divided by KD of variant.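 Also: relative to parent M103205H795-SG1 carrying the SG1 human heavy chain constant region.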 How it is done: (§1) The kinetic analysis of interactions between these antibodies and FcγR was carried out using BIACORE® T200 or BIACORE® 4000 (GE Healthcare). HBS-EP+ (GE Healthcare) was used as the running buffer, and the measurement temperature was set to 25° C. A chip produced by immobilizing Protein A. Protein A/G or mouse anti-human IgG kappa light chain (BD Biosciences) onto a Series S Sensor Chip CM4 or CM5 (GE Healthcare) by the amine-coupling method was used. […] After the measurement, the antibody captured on the chip was washed off by allowing reaction with 10 mM glycine-HCl, pH1.5 and 25 mM NaOH so that the chip was regenerated and used repeatedly. The sensorgrams obtained as measurement results were analyzed by the 1:1 Langmuir binding model using the BIACORE® Evaluation Software to calculate the binding rate constant ka (L/mol/s) and dissociation rate constant kd (l/s), and the dissociation constant KD (mol/L) was calculated from these values. […] Regarding such interactions, KD values were calculated using the following 1:1 binding model described in BIACORE® T100 Software Handbook BR1006-48 Edition AE.
(§2) Human FcγRIIb-enhanced Fc variants with anti-myostatin variable region were constructed and their affinity for human FcγRs was evaluated. […] In addition, substitutions (Q311R/D413K or […]) were also introduced. The variants were expressed using M103202L1045-SK1 as light chain and their affinity to human FcγRs was analyzed according to the method shown in Example 34.

Experiment [2] addresses T2, human FcγRIIaR extracellular domain, C-terminal His-tag (human, UniProt P12318 34-217).
T2 construct: also called human FcγRIIa (type R); FcgRIIaR; not shown: His-tag added to the C-terminus
T2 chain: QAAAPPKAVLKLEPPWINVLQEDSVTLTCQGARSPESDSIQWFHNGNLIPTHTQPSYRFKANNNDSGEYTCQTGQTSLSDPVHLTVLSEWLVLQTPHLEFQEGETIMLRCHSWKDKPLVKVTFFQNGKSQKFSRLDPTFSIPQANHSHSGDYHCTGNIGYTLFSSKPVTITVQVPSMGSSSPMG
As to the kind of experiment: SPR; KD of SG1 divided by KD of variant.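 Also: relative to parent M103205H795-SG1 carrying the SG1 human heavy chain constant region.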 How it is done: as §1, §2
(SPR reads the build-up and loss of mass on a sensor chip optically.)

Experiment [3] has as its target T3, human FcγRIIb extracellular domain, C-terminal His-tag (human, UniProt P31994 43-217).
T3 construct: also called FcgRIIb; not shown: His-tag added to the C-terminus
T3 sequence: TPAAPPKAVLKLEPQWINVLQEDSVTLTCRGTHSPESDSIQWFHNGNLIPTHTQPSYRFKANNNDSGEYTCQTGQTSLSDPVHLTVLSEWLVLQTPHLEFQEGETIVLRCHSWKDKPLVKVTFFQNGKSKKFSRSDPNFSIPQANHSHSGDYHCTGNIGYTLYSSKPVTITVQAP
As to the kind of experiment: SPR; KD of SG1 divided by KD of variant.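 Also: relative to parent M103205H795-SG1 carrying the SG1 human heavy chain constant region.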 How it is done:
as §1, §2

Experiment [4] addresses T4, human FcγRIIIaV extracellular domain, C-terminal His-tag (human, UniProt P08637 17-208).
T4 construct: also called FcgRIIIaV; not shown: His-tag added to the C-terminus
Kind of experiment: SPR; KD of SG1 divided by KD of variant.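 Also: relative to parent M103205H795-SG1 carrying the SG1 human heavy chain constant region.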 How it is done:
as §1, §2

Experiment [5] has as its target T1, human FcγRIIaH extracellular domain, …. As to the kind of experiment: SPR (BIACORE), antibody captured, soluble FcgR as analyte, 25C. How it is done: as §1, §2
The target in experiment [6] is T2, human FcγRIIaR extracellular domain, …. The description is as above. The protocol: as §1, §2
Experiment [7] concerns the target T3, human FcγRIIb extracellular domain, …. The experiment is described as above. How it is done: as §1, §2
Experiment [8] concerns the target T4, human FcγRIIIaV extracellular domain, …. The description is as above. How it is done: as §1, §2

T4 sequence (P08637 17-208 F176V): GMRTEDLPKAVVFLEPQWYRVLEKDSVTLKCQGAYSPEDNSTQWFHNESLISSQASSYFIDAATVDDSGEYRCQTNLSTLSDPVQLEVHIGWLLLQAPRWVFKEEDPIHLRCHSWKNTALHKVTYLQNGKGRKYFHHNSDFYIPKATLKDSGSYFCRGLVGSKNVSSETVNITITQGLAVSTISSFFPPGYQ

B1: MS103240H795-TT27/M103202L1045-SK1 (antibody, human IgG1, kappa)
heavy: QVQLVESGGGLVQPGGSLRLSCAVSGIDLSHDDISWVRQAPGKGLEWVSIISYAGSTYYASWAKGRLTISKDTSKNQVVLTMTNMDPVDTATYYCARGVPAYSHGGDLWGQGTLVTVSSASTKGPSVFPLAPSSKSTSGGTAALGCLVKDYFPEPVTVSWNSGALTSGVHTFPAVLQSSGLYSLSSVVTVPSSSLGTQTYICNVNHKPSNTKVDKKVEPKSCDKTHTCPPCPAPEYLGGDSVFLFPPKPKDVLMISRTPEVTCVVVDVSHEDPEVKFNWYVDGVEVHNAKTKPREEQYNSTYRVVSVLPVLHRDWLNGKEYKCKVSNKALPKPIEKTISKAKGQPREPQVYTLPPSREEMTKNQVSLTCLVKGFYPSDIAVEWESNGQPENNYKTTPPVLDSDGSFFLYSKLTVKKSRWQQGNVFSCSVMHEALHNHYTQKSLSLSP
light: DIVMTQSPATLSLSPGERATLSCTTSQSVYHENWLSWFQQKPGQPPKLLIYWASTLAYGVPSRFSGSGSGTDFTLTISSLQPEDAATYYCAGGYGGGRYAFGQGTKVEIKRTVAAPSVFIFPPSDEQLKSGTASVVCLLNNFYPREAKVQWKVDNALQSGNSQESVTEQDSKDSTYSLSSTLTLSKADYEKHKVYACEVTHQGLSSPVTKSFNRGEC
notes: CH = SG1 with L234Y/P238D/T250V/T307P/Q311R/A330K/D413K (EU numbering)
The Kd is the constant that tells how readily two partners part at equilibrium. The low end stands for a tighter complex, the high end for a looser complex. Turning to B1, the “KD fold (SG1 = 1)” value was 0.014 fold in experiment [1], 0.08 fold in experiment [2], 7.1 fold in experiment [3] and 0.006 fold in experiment [4]. Besides, the Kd in experiment [5] was 52 µM; in experiment [6] it was 14 µM; in experiment [7] it was 0.82 µM; in experiment [8], 130 µM.

B2: MS103240H795-TT28/M103202L1045-SK1 (antibody, human IgG1, kappa)
heavy: QVQLVESGGGLVQPGGSLRLSCAVSGIDLSHDDISWVRQAPGKGLEWVSIISYAGSTYYASWAKGRLTISKDTSKNQVVLTMTNMDPVDTATYYCARGVPAYSHGGDLWGQGTLVTVSSASTKGPSVFPLAPSSKSTSGGTAALGCLVKDYFPEPVTVSWNSGALTSGVHTFPAVLQSSGLYSLSSVVTVPSSSLGTQTYICNVNHKPSNTKVDKKVEPKSCDKTHTCPPCPAPEYLGGDSVFLFPPKPKDVLMISRTPEVTCVVVDVAHEDPEVKFNWYVDGVEVHNAKTKPREEQYNSTYRVVSVLPVLHRDWLNGKEYKCKVSNKALPKPIEKTISKAKGQRREPQVYTLPPSREEMTKNQVSLTCLVKGFYPSDIAVEWESNGQPENNYKTTPPVLDSDGSFFLYSKLTVDKSRWQQGNVFSCSVMHEALHNHYTQKSLSLSP
light: DIVMTQSPATLSLSPGERATLSCTTSQSVYHENWLSWFQQKPGQPPKLLIYWASTLAYGVPSRFSGSGSGTDFTLTISSLQPEDAATYYCAGGYGGGRYAFGQGTKVEIKRTVAAPSVFIFPPSDEQLKSGTASVVCLLNNFYPREAKVQWKVDNALQSGNSQESVTEQDSKDSTYSLSSTLTLSKADYEKHKVYACEVTHQGLSSPVTKSFNRGEC
notes: CH = SG1 with L234Y/P238D/T250V/S267A/T307P/Q311R/A330K/P343R (EU numbering)
Take B2: the “KD fold (SG1 = 1)” value is 0.016 fold in experiment [1], 0.14 fold in experiment [2], 6.8 fold in experiment [3] and 0.01 fold in experiment [4]. Moreover, the Kd in experiment [5] was 48 µM; in experiment [6], 7.7 µM; in experiment [7], 0.85 µM; in experiment [8], 82 µM.

B3: MS103240H795-TT30/M103202L1045-SK1 (antibody, human IgG1, kappa)
heavy: QVQLVESGGGLVQPGGSLRLSCAVSGIDLSHDDISWVRQAPGKGLEWVSIISYAGSTYYASWAKGRLTISKDTSKNQVVLTMTNMDPVDTATYYCARGVPAYSHGGDLWGQGTLVTVSSASTKGPSVFPLAPSSKSTSGGTAALGCLVKDYFPEPVTVSWNSGALTSGVHTFPAVLQSSGLYSLSSVVTVPSSSLGTQTYICNVNHKPSNTKVDKKVEPKSCDKTHTCPPCPAPELLGGDSVFLFPPKPKDVLMISRTPEVTCVVIDVAHEDPEVKFNWYVDGVEVHNAKTKPREEQYNSTYRVVSVLPVLHRDWLNGKEYKCKVSNKALPKPIEKTISKAKGQRREPQVYTLPPSREEMTKNQVSLTCLVKGFYPSDIAVEWESNGQPENNYKTTPPVLDSDGSFFLYSKLTVDKSRWQQGNVFSCSVMHEALHNHYTQKSLSLSP
light: DIVMTQSPATLSLSPGERATLSCTTSQSVYHENWLSWFQQKPGQPPKLLIYWASTLAYGVPSRFSGSGSGTDFTLTISSLQPEDAATYYCAGGYGGGRYAFGQGTKVEIKRTVAAPSVFIFPPSDEQLKSGTASVVCLLNNFYPREAKVQWKVDNALQSGNSQESVTEQDSKDSTYSLSSTLTLSKADYEKHKVYACEVTHQGLSSPVTKSFNRGEC
notes: CH = SG1 with P238D/T250V/V264I/S267A/T307P/Q311R/A330K/P343R (EU numbering)
On to B3, for which the “KD fold (SG1 = 1)” value came to 0.005 fold in experiment [1], 0.08 fold in experiment [2], 10.2 fold in experiment [3] and 0.012 fold in experiment [4]. The Kd turned out to be 150 µM in experiment [5], 14 µM in experiment [6], 0.57 µM in experiment [7] and 66 µM in experiment [8].

B4: MS103240H795-TT31/M103202L1045-SK1 (antibody, human IgG1, kappa)
heavy: QVQLVESGGGLVQPGGSLRLSCAVSGIDLSHDDISWVRQAPGKGLEWVSIISYAGSTYYASWAKGRLTISKDTSKNQVVLTMTNMDPVDTATYYCARGVPAYSHGGDLWGQGTLVTVSSASTKGPSVFPLAPSSKSTSGGTAALGCLVKDYFPEPVTVSWNSGALTSGVHTFPAVLQSSGLYSLSSVVTVPSSSLGTQTYICNVNHKPSNTKVDKKVEPKSCDKTHTCPPCPAPELLGGDSVFLFPPKPKDVLMISRTPEVTCVVIDVAHEDPEVKFNWYVDGVEVHNAKTKPREEQYNSTYRVVSVLPVLHRDWLNGKEYKCKVSNKALPKPIEKTISKAKGQPREPQVYTLPPSREEMTKNQVSLTCLVKGFYPSDIAVEWESNGQPENNYKTTPPVLDSDGSFFLYSKLTVKKSRWQQGNVFSCSVMHEALHNHYTQKSLSLSP
light: DIVMTQSPATLSLSPGERATLSCTTSQSVYHENWLSWFQQKPGQPPKLLIYWASTLAYGVPSRFSGSGSGTDFTLTISSLQPEDAATYYCAGGYGGGRYAFGQGTKVEIKRTVAAPSVFIFPPSDEQLKSGTASVVCLLNNFYPREAKVQWKVDNALQSGNSQESVTEQDSKDSTYSLSSTLTLSKADYEKHKVYACEVTHQGLSSPVTKSFNRGEC
notes: CH = SG1 with P238D/T250V/V264I/S267A/T307P/Q311R/A330K/D413K (EU numbering)
Regarding B4, the “KD fold (SG1 = 1)” value amounted to 0.007 fold in experiment [1], 0.06 fold in experiment [2], 10.4 fold in experiment [3] and 0.003 fold in experiment [4]. For the same molecule, the Kd in experiment [5] was found to be 110 µM; in experiment [6], 19 µM; in experiment [7], 0.56 µM; in experiment [8] it was 290 µM.

B5: MS103240H795-TT29/M103202L1045-SK1 (antibody, human IgG1, kappa)
heavy: QVQLVESGGGLVQPGGSLRLSCAVSGIDLSHDDISWVRQAPGKGLEWVSIISYAGSTYYASWAKGRLTISKDTSKNQVVLTMTNMDPVDTATYYCARGVPAYSHGGDLWGQGTLVTVSSASTKGPSVFPLAPSSKSTSGGTAALGCLVKDYFPEPVTVSWNSGALTSGVHTFPAVLQSSGLYSLSSVVTVPSSSLGTQTYICNVNHKPSNTKVDKKVEPKSCDKTHTCPPCPAPEYLGGDSVFLFPPKPKDVLMISRTPEVTCVVVDVAHEDPEVKFNWYVDGVEVHNAKTKPREEQYNSTYRVVSVLPVLHRDWLNGKEYKCKVSNKALPKPIEKTISKAKGQPREPQVYTLPPSREEMTKNQVSLTCLVKGFYPSDIAVEWESNGQPENNYKTTPPVLDSDGSFFLYSKLTVKKSRWQQGNVFSCSVMHEALHNHYTQKSLSLSP
light: DIVMTQSPATLSLSPGERATLSCTTSQSVYHENWLSWFQQKPGQPPKLLIYWASTLAYGVPSRFSGSGSGTDFTLTISSLQPEDAATYYCAGGYGGGRYAFGQGTKVEIKRTVAAPSVFIFPPSDEQLKSGTASVVCLLNNFYPREAKVQWKVDNALQSGNSQESVTEQDSKDSTYSLSSTLTLSKADYEKHKVYACEVTHQGLSSPVTKSFNRGEC
notes: CH = SG1 with L234Y/P238D/T250V/S267A/T307P/Q311R/A330K/D413K (EU numbering)
On to B5, for which the “KD fold (SG1 = 1)” value in experiment [1] came out at 0.02 fold; in experiment [2] it was 0.15 fold; in experiment [3] it was 7.2 fold; in experiment [4], 0.009 fold. The Kd in experiment [5] was determined as 37 µM; in experiment [6], 7.5 µM; in experiment [7] it was 0.81 µM; in experiment [8], 89 µM.

Source of the values: patent US20200317768A1 (published 2020).
